B1: PfaE3 (P. falciparum apicoplast E3, dihydrolipoamide dehydrogenase) (Plasmodium falciparum 3D7) (protein)
chain: LKGSTQNIMNINEKEYDLAIIGCGVGGHAAAINAMERNLKVIIFAGDENCIGGTCVNVGCIPSKALLYATNKYRELKNLDKLYYYGIHSNIFQNNKNTEIENNQLVSNSFQINITKLKEYTQSVIDKLRNGISHGFKTLKFNKNSEHVQVIYEHGQLLDKNTIKSKKSGNTYKVKNIIIATGSVPNIPNNVEIDDKSVFTSDMAVKLVGLKNYMSIIGMGIIGLEFADIYTALGSEITFLEYSSELLPIIDNDVAKYFERVFLKNKPVNYHLNTEVKYIKASKNNNPVIIGYSHRTGNDDNEKKNMTDVKELYVDSCLVATGRNPNTQNLGLEKLKIQMNRGYVSVNDNLQVKMENNEIYDNIFCIGDANGKQMLAHTASYQALKVIDFIEKKEKKNVNINVENNLSKPILYKNIPSVCYTNPELAFIGLTEKEAKVLYPDNVGVEISYYKSNSKILCENNISLNNNKKNNSYNKGQYNINDNTNGMVKIIYKEDTKEILGMFIVGNYASVLIHEAVLAINLKLSAFDLAYMVHSHPTVSEVLDTAFKSISKIRTH
notes: mature-length, apicoplast-targeting peptide removed; given as 110-667 in Results but 118-667 in Methods (forward primer at nt 331, i.e. codon 111); N-terminal 6-His tag kept (pQE30), expressed in E. coli NovaBlue (DE3); about 64 kDa, homodimer 128 kDa; 566 residues with tag; some C-terminally truncated form present

Assays:
[1] = target: Plasmodium falciparum apicoplast dihydrolipoamide dehydrogenase (PfaE3), recombinant mature-length, N-terminal His-tag (Plasmodium falciparum 3D7); assay: SEC; HiLoad 16/60 Superdex 200, calibrated; 50 mM potassium phosphate, 150 mM NaCl, 2 mM EDTA, pH 7.4; Ni-NTA eluate applied
[2] = target: Plasmodium falciparum apicoplast dihydrolipoamide dehydrogenase (PfaE3), recombinant mature-length, N-terminal His-tag (Plasmodium falciparum 3D7); assay: AUC; sedimentation equilibrium, 17000 rpm, 4°C, 4.7 to 22.7 μM PfaE3; 50 mM potassium phosphate, 250 mM NaCl, 2 mM EDTA, pH 7.4; interference optics, single species model in SEDPHAT
[3] = target: Plasmodium falciparum apicoplast dihydrolipoamide dehydrogenase (PfaE3), recombinant mature-length, N-terminal His-tag (Plasmodium falciparum 3D7); assay: SAXS; EMBL beamline X33, DESY; 10°C; PfaE3 at 9, 8, 6, 5 and 4 μM; Guinier, p(r) and ab initio DAM with P2 symmetry
purified protein [4] = substrate: NC(=O)CCCC[C@@H]1CCSS1; assay: purified protein; assay type: biochemical, Plasmodium falciparum; settings: reverse reaction, 200 μM NADH, 50 mM potassium phosphate, 1 mM EDTA, pH 7, 25°C
purified protein [5] = substrate: NC(=O)CCCC[C@@H](S)CCS; assay: purified protein; assay type: biochemical, Plasmodium falciparum; settings: forward reaction, 2 mM NAD+, 50 mM potassium phosphate, 1 mM EDTA, pH 8, 25°C
purified protein [6] = substrate: NC(=O)c1ccc[n+]([C@@H]2O[C@H](COP(=O)(O)OP(=O)(O)OC[C@H]3O[C@@H](n4cnc5c(N)ncnc54)[C@H](O)[C@@H]3O)[C@@H](O)[C@H]2O)c1; assay: purified protein; assay type: biochemical, Plasmodium falciparum; settings: forward reaction, 2 mM DHLA, 50 mM potassium phosphate, 1 mM EDTA, pH 8, 25°C
purified protein [7] = substrate: NC(=O)C1=CN([C@@H]2O[C@H](COP(=O)(O)OP(=O)(O)OC[C@H]3O[C@@H](n4cnc5c(N)ncnc54)[C@H](O)[C@@H]3O)[C@@H](O)[C@H]2O)C=CC1; assay: purified protein; assay type: biochemical, Plasmodium falciparum; settings: reverse reaction, 2 mM lipoamide, 50 mM potassium phosphate, 1 mM EDTA, pH 7, 25°C

Row | Molecule | stoichiometry N [1] | stoichiometry N [2] | stoichiometry N [3] | Km (purified protein [4]) | kcat (purified protein [4]) | Km (purified protein [5]) | kcat (purified protein [5]) | Km (purified protein [6]) | kcat (purified protein [6]) | Km (purified protein [7]) | kcat (purified protein [7])
1 | Plasmodium falciparum apicoplast dihydrolipoamide dehydrogenase (PfaE3), recombinant mature-length, N-terminal His-tag (enzyme) | 2 | 2 | 2 | – | – | – | – | – | – | – | –
2 | B1 | – | – | – | 841 ± 97 µM | 97 s⁻¹ | 1160 ± 105 µM | 110 s⁻¹ | 96 ± 12 µM | 110 s⁻¹ | 15 ± 2 µM | 77.8 s⁻¹
